In assay [1] the target is T1, human CD81 on CD81-expressing cells (Jurkat E6.1, human PBMC, Ramos) (human, UniProt P60033 1-236).
T1 sequence: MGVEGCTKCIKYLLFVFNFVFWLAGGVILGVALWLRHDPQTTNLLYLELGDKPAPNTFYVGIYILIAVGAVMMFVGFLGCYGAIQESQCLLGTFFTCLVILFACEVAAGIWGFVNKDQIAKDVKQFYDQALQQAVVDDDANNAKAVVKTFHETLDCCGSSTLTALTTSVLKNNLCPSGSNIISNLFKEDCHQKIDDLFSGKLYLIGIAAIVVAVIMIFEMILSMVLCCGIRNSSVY
The experiment in a line: cell-based or functional assay.

Another assay concerns the target T2, human CD81 mutant A164T (human, UniProt P60033 1-236, limits assumed).
T2 construct: as m30; not shown: C-terminal V5 and 6xHis tags
T2 sequence: T1 sequence with A164T
The experiment in a line: ELISA.

Another assay concerns the target T3, human CD81 mutant V169A (human, UniProt P60033 1-236, limits assumed).
T3 construct: as m30; not shown: C-terminal V5 and 6xHis tags
T3 sequence: T1 sequence with V169A
The experiment in a line: ELISA. (In general: ELISA stands for enzyme-linked immunosorbent assay.)

In a further assay the target is T4, human CD81 mutant V135A (human, UniProt P60033 1-236, limits assumed).
T4 construct: as m30; not shown: C-terminal V5 and 6xHis tags
T4 sequence: T1 sequence with V135A
The assay is described as follows: ELISA.

A further assay deals with T5, human CD81 mutant D137A (human, UniProt P60033 1-236, limits assumed).
T5 construct: as m30; not shown: C-terminal V5 and 6xHis tags
T5 sequence: T1 sequence with D137A
The experiment in a line: ELISA.

The target of the next assay is T6, human CD81 mutant L165A (human, UniProt P60033 1-236, limits assumed).
T6 construct: as m30; not shown: C-terminal V5 and 6xHis tags
T6 sequence: T1 sequence with L165A
The assay is described as follows: ELISA.

The target in a further assay is T7, human CD81 mutant A164V (human, UniProt P60033 1-236, limits assumed).
T7 construct: as m30; not shown: C-terminal V5 and 6xHis tags
T7 sequence: T1 sequence with A164V
The experiment in a line: ELISA.

Another assay deals with T8, human CD81 mutant D137E (human, UniProt P60033 1-236, limits assumed).
T8 construct: as m30; not shown: C-terminal V5 and 6xHis tags
T8 sequence: T1 sequence with D137E
The assay is described as follows: ELISA.

In the next assay the target is T9, human CD81 mutant V169L (human, UniProt P60033 1-236, limits assumed).
T9 construct: as m30; not shown: C-terminal V5 and 6xHis tags
T9 sequence: T1 sequence with V169L
The experiment in a line: ELISA.

Another assay concerns the target T10, human CD81 mutant G158S (human, UniProt P60033 1-236, limits assumed).
T10 construct: as m30; not shown: C-terminal V5 and 6xHis tags
T10 sequence: T1 sequence with G158S
The experiment in a line: ELISA.

A further assay deals with T11, human CD81 mutant H151R (human, UniProt P60033 1-236, limits assumed).
T11 construct: as m30; also called H151B; not shown: C-terminal V5 and 6xHis tags
T11 sequence: T1 sequence with H151R
The experiment in a line: ELISA.

In a further assay the target is T12, human CD81 mutant V135L (human, UniProt P60033 1-236, limits assumed).
T12 construct: as m30; not shown: C-terminal V5 and 6xHis tags
T12 sequence: T1 sequence with V135L
The experiment in a line: ELISA.

The target in the next assay is T13, human CD81 mutant I194A (human, UniProt P60033 1-236, limits assumed).
T13 construct: as m30; not shown: C-terminal V5 and 6xHis tags
T13 sequence: T1 sequence with I194A
The experiment in a line: ELISA.

In another assay the target is T14, human CD81 mutant S168T (human, UniProt P60033 1-236, limits assumed).
T14 construct: as m30; not shown: C-terminal V5 and 6xHis tags
T14 sequence: T1 sequence with S168T
The experiment in a line: ELISA.

Numbering of substitutions follows the chain as printed. In names and notes the source's numbering stands.

B1: 002-C02 (antibody, human IgG4 S228P, lambda, V domains shown)
VH: EVQLLESGGGLVQPGGSLRLSCAASGFTFSSNYMSWVRQAPGKGLEWVSYISSSSSYTDYADTVKGRFTISRDNSKNTLYLQMNSLRAEDTAVYYCASYSYGRDSFDYWGQGTLVTVSS
VL: QSVLTQPPSASGTPGQRVTISCTGSTSNIGAGYDTHWYQQLPGTAPKLLIYGNSNRPSGVPDRFSGSKSGTSASLAISGLRTEDEADYYCQSYDTNLSVWVFGGGTKLTVLG
notes: IgG4 S228P
For B1, in assay [1], the “Jurkat chemotaxis (% of control IgG4) at 0.001 µg/mL” value came to 106%. For the same molecule, the “Jurkat chemotaxis (% of control IgG4) at 0.01 µg/mL” value in [1] amounted to 104%. Besides, in assay [1], the “Jurkat chemotaxis (% of control IgG4) at 0.1 µg/mL” value was determined as 31%. Also, in assay [1], the “Jurkat chemotaxis (% of control IgG4) at 1 µg/mL” value is -5%. The “Jurkat chemotaxis (% of control IgG4) at 10 µg/mL” value in assay [1] was -4%. Also, the relative binding affinity in the assay with human CD81 mutant A164T, with human CD81 mutant V169A, in the assay with human CD81 mutant V135A, with human CD81 mutant D137A, with human CD81 mutant L165A and in the assay with human CD81 mutant A164V was less than 20% in each case. Moreover, the relative binding affinity with human CD81 mutant D137E and with human CD81 mutant V169L was less than 20% in each case.

B2: 003-F08 (antibody, human IgG4 S228P, lambda, V domains shown)
VH: B1 VH with L45P, S56T, T58A, T63S, S98R, S105N
VL: B1 VL with P8S, T82S, V99A
notes: IgG4 S228P
With B2, in [1], the “Jurkat chemotaxis (% of control IgG4) at 0.001 µg/mL” value turned out to be 80%. For the same molecule, the “Jurkat chemotaxis (% of control IgG4) at 0.01 µg/mL” value in assay [1] stood at 79%. Moreover, in [1], the “Jurkat chemotaxis (% of control IgG4) at 0.1 µg/mL” value was found to be 21%. Moreover, the “Jurkat chemotaxis (% of control IgG4) at 1 µg/mL” value in [1] is -3%. Also, the “Jurkat chemotaxis (% of control IgG4) at 10 µg/mL” value in assay [1] is -4%. In addition, the relative binding affinity with human CD81 mutant A164T, in the assay with human CD81 mutant G158S, with human CD81 mutant V169A, in the assay with human CD81 mutant V135A, with human CD81 mutant D137A and with human CD81 mutant L165A was less than 20% each time. Besides, the relative binding affinity with human CD81 mutant A164V, with human CD81 mutant D137E, with human CD81 mutant H151R, with human CD81 mutant V135L and with human CD81 mutant V169L was less than 20% in each case.

B3: 002-F01 (antibody, human IgG4 S228P, lambda, V domains shown)
VH: B1 VH with S56T, T63S, S98R, S105N
VL: B1 VL with T82S, V99A
notes: IgG4 S228P
Take B3: the “Jurkat chemotaxis (% of control IgG4) at 0.001 µg/mL” value in assay [1] was 89%. Besides, the “Jurkat chemotaxis (% of control IgG4) at 0.01 µg/mL” value in assay [1] amounted to 87%. Besides, the “Jurkat chemotaxis (% of control IgG4) at 0.1 µg/mL” value in assay [1] is 35%. The “Jurkat chemotaxis (% of control IgG4) at 1 µg/mL” value in [1] came out at 4%. Besides, the “Jurkat chemotaxis (% of control IgG4) at 10 µg/mL” value in assay [1] turned out to be 9%. Moreover, the relative binding affinity with human CD81 mutant A164T, with human CD81 mutant I194A, with human CD81 mutant V169A, in the assay with human CD81 mutant V135A, in the assay with human CD81 mutant L165A and in the assay with human CD81 mutant A164V was less than 20% throughout. Further, the relative binding affinity with human CD81 mutant S168T and with human CD81 mutant V169L was less than 20% in each case.
